Assays:
[1] = target: dynamic microtubules grown from purified bovine brain tubulin (bovine) (UniProt Q6B856); test: optical trap rupture force assay; kinetochores purified without benzonase, held on beads by anti-penta-His antibody via Dsn1-6His-3M3DK, attached to the tip of dynamic microtubules grown from coverslip-anchored seeds; BRB80 growth buffer, 23 °C; force raised at 0.25 pN/s until detachment
[2] = target: dynamic microtubules grown from purified bovine brain tubulin (bovine) (UniProt Q6B856); test: optical trap rupture force assay; kinetochores purified with benzonase, held on beads by anti-penta-His antibody via Dsn1-6His-3M3DK, attached to the tip of dynamic microtubules grown from coverslip-anchored seeds; BRB80 growth buffer, 23 °C; force raised at 0.25 pN/s until detachment

Substance | median rupture force [1] | median rupture force [2]
S. cerevisiae kinetochores purified via Dsn1-6His-3M3DK (from UniProt P40568 1-576) (complex) | 7.2 pN | –
K. marxianus kinetochores purified via Dsn1-6His-3M3DK (from UniProt A0ABX6F0Z3 1-547) (complex) | 7.5 pN | 6.4 pN

From article PMC12226651
